Source: the Human Domainome abundance scans (Beltran et al. 2025)

B1: Zinc finger MYM-type protein 6, residues 427 to 504; numbered along this chain, O95789 (parent)
chain: KLKCQHCNHLFATKPELLFYKGKMFLFCGKNCSDEYKKKNKVVAMCDYCKLQKIIKETVRFSGVDKPFCSEVCKFLSA

Variants of: B1
Test: abundance fitness (aPCA) (normalised: wild type 0, dead -1); higher = more abundant; growth selection in yeast, the domain comes from the species named
Conditions: Homo sapiens

Abundance fitness, by site and new letter:
Y48: K -0.496 | R -0.043 | S -0.52 | T -0.014 | V -0.677 | W -0.276 | Q 0.059
N40: A -0.02 | G -0.086 | D 0.019 | Y -0.24 | S 0.049 | R -0.045 | L -0.191 | K -0.105 | T -0.014 | E -0.071 | V -0.03 | C -0.135 | P -0.172 | H -0.104
V43: H -0.763 | W -0.416 | K 0.542 | E -0.064 | L -0.7 | M 0.55 | G -0.224 | A -0.423 | D -0.271 | N 0.239 | R -0.224
K38: M -0.063 | A 0.023 | G -0.026 | Q -0.053 | P -0.163 | V -0.018 | W -0.136 | D -0.114 | E -0.014 | T -0.014 | L -0.088 | S -0.027
D47: V -0.58 | R -0.394 | T -0.041 | C -0.16 | L 0.177 | H 0.26 | S 0.311 | E -0.125 | N -0.327 | Q -0.106 | W 0.424 | A -0.033 | I -0.306
K39: G 0.005 | C -0.163 | W -0.099 | V -0.023 | A 0.029 | Q -0.043 | H -0.078 | Y 0.024 | L -0.107 | S 0.003 | P -0.055 | E -0.012 | M -0.087 | R -0.004 | T -0.058
C49: W -1.05 | Q 0.123 | E -0.64 | K -0.433 | T -0.54 | M -0.677 | D -0.718 | V -1.07 | G -0.54 | S -0.489 | R -0.242 | A -0.604
